In assay [1] the target is megalin expressed on Brown Norway yolk sac carcinoma cells (BN16 cells) (UniProt P98158). The assay can be described thus: cell-based or functional assay.
The target of assay [2] is SHBG receptors in bovine epididymis membranes permeabilized in digitonin (bovine). Description: radioligand filter binding to digitonin-permeabilized bovine epididymis membranes, competition with unlabelled rSHBG.
For assay [3] the target is unchanged. Description: homologous competition, filter binding: 125I-rSHBG (400 pg) on 600 µg bovine epididymis membranes permeabilized in digitonin, with testosterone, 4 °C 18 h; unlabelled rSHBG varied, 125I-rSHBG as the displaced tracer.
Assay [4] deals with SHBG receptors in bovine endometrium membranes permeabilized in digitonin (bovine). The assay can be described thus: homologous competition, filter binding: 125I-rSHBG (400 pg) on 600 µg bovine endometrium membranes permeabilized in digitonin, with testosterone, 4 °C 18 h; unlabelled rSHBG varied, 125I-rSHBG as the displaced tracer.
In the next assay the target is purified native megalin. Description: surface plasmon resonance, native megalin immobilised (51.4 fmol/mm^2), 1 µM testosterone/SHBG complexes in flow, blank chip subtracted. (In general: Surface plasmon resonance follows binding to a sensor surface in real time, without labels.)
For assay [5], the system named is SHBG receptors in bovine epididymis membranes. The assay can be described thus: 125I-rSHBG binding to permeabilized epididymis membranes. The protocol: (§1) FIG. 8. 125I-rSHBG (400 pg) was incubated with 600 μg of membrane preparations from bovine epididymis (A) or endometrium (B) in the presence of the indicated concentrations of unlabelled rSHBG. Values are given as a percentage of 125I-rSHBG bound in the absence of competitor (100%). The data represent the means of four individual experiments (±S.E.M.). Where no error bar is shown, the values are smaller than the actual symbol.
(§2) To test whether recombinant SHBG (rSHBG) interacts with SHBG receptors and in particular whether rSHBG can act as an inhibitor of SHBG binding to an SHBG receptor, the binding of rSHBG to bovine epididymis and endometrium membranes permeabilized in digitonin was assayed. Binding was performed in the presence of testosterone, to achieve steroid hormone-steroid hormone binding protein complex formation.
(§3) Briefly, purified recombinant SHBG was labelled with ^125I using the Iodo-Gen™ method [specific radioactivity (13-15)×10^3 c.p.m./ng]. 400 pg of ^125I—SHBG was mixed with 600 μg of purified membranes (either bovine epididymis or bovine endometrium membranes permeabilized in digitonin) in a total volume of 200 μl of reaction buffer [10 mM Hepes, pH 7.4, 2 mM CaCl2, 1 mM MgCl2, 1% (w/v) BSA, 1 µM ZnCl2, […] testosterone and […] digitonin]. […] The filters were washed extensively with reaction buffer and the amount of bound radioactivity was determined.

Assay [6] relates to SHBG receptors in bovine endometrium membranes. Description: 125I-rSHBG binding to permeabilized endometrium membranes. The note with it: bovine endometrium membranes permeabilized in digitonin, competition with unlabelled rSHBG. The protocol: as §1, §2, §3
In another assay the target is SHBG receptor. To be noted: read-out: Kd of receptor binding, cited from earlier work.

Read-outs that look alike come from different tables or passages of the source.

For orientation: Kd means a measure of binding affinity in units of concentration.

Sequence of UniProt P98158 (P98158 26-4660 limits assumed): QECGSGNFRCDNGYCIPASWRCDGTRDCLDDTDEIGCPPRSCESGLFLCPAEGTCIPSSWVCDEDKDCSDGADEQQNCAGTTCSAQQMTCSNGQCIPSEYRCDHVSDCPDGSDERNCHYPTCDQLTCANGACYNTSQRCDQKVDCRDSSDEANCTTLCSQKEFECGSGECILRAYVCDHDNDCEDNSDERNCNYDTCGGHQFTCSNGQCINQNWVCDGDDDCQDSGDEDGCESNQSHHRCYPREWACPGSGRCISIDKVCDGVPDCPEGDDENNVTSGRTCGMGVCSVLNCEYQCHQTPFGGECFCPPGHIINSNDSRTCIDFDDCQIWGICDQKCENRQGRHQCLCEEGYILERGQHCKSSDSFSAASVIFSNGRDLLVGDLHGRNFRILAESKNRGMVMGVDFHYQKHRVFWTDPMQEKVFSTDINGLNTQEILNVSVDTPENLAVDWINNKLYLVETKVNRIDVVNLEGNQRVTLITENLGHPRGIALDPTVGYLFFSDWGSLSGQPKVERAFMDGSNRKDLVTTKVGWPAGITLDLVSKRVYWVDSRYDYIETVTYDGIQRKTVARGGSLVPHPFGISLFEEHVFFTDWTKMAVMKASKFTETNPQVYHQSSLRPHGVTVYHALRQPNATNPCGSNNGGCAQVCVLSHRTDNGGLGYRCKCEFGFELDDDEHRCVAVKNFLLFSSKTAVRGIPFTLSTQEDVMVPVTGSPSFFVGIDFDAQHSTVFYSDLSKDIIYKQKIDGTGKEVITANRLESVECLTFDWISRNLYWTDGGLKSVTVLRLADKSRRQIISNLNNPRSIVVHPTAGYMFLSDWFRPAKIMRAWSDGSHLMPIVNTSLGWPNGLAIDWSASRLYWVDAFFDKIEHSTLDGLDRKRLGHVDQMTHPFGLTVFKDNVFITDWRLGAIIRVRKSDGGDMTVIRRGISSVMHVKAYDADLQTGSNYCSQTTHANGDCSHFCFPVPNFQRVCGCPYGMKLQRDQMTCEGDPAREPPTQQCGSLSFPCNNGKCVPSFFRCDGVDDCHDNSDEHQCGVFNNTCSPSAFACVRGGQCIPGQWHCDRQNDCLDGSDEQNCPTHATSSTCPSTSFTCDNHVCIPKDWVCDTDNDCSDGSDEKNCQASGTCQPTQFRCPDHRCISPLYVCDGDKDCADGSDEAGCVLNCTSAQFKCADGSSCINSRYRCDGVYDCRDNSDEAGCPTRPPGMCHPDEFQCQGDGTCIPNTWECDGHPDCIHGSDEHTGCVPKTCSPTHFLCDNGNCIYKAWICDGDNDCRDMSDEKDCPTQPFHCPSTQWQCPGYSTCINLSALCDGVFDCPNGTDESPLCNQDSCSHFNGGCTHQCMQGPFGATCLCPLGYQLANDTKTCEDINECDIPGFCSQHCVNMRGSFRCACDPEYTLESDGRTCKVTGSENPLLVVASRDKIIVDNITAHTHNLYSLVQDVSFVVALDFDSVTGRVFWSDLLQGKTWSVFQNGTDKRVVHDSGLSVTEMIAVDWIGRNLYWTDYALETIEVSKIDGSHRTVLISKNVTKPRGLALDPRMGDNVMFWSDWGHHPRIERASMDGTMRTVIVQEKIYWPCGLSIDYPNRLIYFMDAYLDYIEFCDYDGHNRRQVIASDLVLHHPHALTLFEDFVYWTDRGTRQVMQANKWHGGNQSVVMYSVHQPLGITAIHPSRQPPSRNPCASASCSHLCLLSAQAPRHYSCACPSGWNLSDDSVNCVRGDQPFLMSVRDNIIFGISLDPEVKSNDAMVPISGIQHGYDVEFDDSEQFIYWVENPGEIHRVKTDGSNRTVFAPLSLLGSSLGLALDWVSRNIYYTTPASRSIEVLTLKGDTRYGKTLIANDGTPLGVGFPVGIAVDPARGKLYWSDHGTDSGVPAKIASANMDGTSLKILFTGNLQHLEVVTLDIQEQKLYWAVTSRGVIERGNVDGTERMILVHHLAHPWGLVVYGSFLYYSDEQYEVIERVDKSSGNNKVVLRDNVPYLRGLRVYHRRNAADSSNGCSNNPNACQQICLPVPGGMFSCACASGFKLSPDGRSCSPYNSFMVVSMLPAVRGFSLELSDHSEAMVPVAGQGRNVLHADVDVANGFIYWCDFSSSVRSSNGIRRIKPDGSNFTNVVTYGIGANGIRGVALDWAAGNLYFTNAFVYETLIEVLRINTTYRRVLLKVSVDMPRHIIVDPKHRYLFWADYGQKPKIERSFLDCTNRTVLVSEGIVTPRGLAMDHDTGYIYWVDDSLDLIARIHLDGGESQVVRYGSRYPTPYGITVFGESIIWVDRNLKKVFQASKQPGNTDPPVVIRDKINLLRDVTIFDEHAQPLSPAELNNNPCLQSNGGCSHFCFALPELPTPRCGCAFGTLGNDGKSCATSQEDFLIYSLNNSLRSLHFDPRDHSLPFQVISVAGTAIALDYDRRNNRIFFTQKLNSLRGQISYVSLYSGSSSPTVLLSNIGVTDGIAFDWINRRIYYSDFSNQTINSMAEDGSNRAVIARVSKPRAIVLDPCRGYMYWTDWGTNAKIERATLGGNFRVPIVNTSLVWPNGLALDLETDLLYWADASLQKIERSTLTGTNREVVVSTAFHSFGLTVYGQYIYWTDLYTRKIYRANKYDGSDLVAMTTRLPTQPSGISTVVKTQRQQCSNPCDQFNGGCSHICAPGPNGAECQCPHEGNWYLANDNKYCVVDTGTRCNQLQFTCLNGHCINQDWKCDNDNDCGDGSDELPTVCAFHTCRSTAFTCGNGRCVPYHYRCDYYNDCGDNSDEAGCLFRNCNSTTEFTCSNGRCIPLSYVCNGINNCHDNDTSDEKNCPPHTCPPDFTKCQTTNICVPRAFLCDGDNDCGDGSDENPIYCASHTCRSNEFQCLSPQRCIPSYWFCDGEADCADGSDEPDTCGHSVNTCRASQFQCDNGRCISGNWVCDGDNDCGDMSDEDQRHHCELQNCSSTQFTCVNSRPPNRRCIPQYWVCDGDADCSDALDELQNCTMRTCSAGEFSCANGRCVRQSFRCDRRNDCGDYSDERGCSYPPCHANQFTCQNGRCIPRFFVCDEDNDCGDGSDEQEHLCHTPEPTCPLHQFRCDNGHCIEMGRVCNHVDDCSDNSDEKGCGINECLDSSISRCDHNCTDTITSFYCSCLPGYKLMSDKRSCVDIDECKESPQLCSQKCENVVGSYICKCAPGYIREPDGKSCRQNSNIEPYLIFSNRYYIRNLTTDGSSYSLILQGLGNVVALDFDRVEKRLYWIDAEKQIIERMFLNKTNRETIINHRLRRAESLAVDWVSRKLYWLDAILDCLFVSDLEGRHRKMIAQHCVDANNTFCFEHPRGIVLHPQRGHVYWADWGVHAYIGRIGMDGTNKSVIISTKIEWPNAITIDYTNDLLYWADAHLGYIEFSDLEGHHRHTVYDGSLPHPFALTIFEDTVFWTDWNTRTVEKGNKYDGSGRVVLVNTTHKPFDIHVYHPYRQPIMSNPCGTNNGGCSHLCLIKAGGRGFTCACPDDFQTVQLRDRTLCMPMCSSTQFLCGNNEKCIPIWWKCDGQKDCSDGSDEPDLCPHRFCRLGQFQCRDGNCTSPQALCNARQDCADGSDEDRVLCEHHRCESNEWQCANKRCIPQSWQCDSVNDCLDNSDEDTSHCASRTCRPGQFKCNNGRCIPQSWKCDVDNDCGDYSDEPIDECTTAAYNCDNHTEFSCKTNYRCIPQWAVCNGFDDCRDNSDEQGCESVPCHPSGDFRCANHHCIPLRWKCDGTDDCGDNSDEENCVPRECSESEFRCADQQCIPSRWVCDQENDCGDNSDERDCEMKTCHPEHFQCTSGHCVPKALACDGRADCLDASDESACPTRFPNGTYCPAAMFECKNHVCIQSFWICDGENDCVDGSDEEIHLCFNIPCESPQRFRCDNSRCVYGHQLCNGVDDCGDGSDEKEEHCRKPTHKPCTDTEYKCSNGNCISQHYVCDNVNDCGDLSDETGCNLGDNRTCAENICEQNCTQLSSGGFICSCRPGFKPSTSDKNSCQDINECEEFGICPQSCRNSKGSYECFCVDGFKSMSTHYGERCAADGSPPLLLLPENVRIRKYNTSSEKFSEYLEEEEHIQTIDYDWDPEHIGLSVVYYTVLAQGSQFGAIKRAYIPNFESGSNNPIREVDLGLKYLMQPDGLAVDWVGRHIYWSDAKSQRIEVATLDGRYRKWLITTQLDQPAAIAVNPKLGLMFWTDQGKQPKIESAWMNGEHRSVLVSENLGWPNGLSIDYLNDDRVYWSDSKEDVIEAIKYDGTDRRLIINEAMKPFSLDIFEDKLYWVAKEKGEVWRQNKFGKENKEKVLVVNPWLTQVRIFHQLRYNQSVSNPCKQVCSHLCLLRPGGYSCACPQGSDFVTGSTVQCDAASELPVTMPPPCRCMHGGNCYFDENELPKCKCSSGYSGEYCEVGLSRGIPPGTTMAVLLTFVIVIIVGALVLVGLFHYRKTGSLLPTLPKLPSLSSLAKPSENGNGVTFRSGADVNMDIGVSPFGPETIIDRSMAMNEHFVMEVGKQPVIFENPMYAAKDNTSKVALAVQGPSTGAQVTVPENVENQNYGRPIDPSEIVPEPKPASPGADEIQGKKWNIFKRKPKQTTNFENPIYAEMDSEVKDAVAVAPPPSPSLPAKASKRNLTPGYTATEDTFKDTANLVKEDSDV

For the molecule “complexes of [3H]-dihydrotestosterone (DHT) and sex hormone binding globulin (SHBG) (ligand)”, the cell-associated [3H]-DHT after 4 hours at 37° C. in the presence of GST (control) in assay [1] came to 300000 cpm.
Regarding “fusion protein of GST and the receptor-associated protein (GST-RAP)”, in assay [1], the cell-associated [3H]-DHT after 4 hours at 37° C. in the presence of GST-RAP came to 70000 cpm and the reduction in [3H]-DHT uptake in the presence of GST-RAP stood at 75%.
“recombinant SHBG (rSHBG), 125I-labelled, in the presence of testosterone (from UniProt P04278 30-402) (ligand)”: the Kd in assay [2] was 0.5 µM. Also, the IC50 (read off the curve) was 1 µM in assay [3] and 3 µM in assay [4].
In the assay with purified native megalin, “testosterone/SHBG complex (sex hormone binding globulin with bound testosterone) (from UniProt P04278 30-402) (ligand)” gave a Kd of 0.14 µM.

B1: rSHBG: recombinant SHBG, 125I-labelled, tested for binding to SHBG receptors (protein, UniProt P04278 30-402, looked up)
Sex hormone-binding globulin: LRPVLPTQSAHDPPAVHLSNGPGQEPIAVMTFDLTKITKTSSSFEVRTWDPEGVIFYGDTNPKDDWFMLGLRDGRPEIQLHNHWAQLTVGAGPRLDDGRWHQVEVKMEGDSVLLEVDGEEVLRLRQVSGPLTSKRHPIMRIALGGLLFPASNLRLPLVPALDGCLRRDSWLDKQAEISASAPTSLRSCDVESNPGIFLPPGTQAEFNLRDIPQPHAEPWAFSLDLGLKQAAGSGHLLALGTPENPSWLSLHLQDQKVVLSSGSGPGLDLPLVLGLPLQLKLSMSRVVLSQGSKMKALALPPLGLAPLLNLWAKPQGRLFLGALPGEDSSTSFCLNGLWAQGQRLDVDQALNRSHEIWTHSCPQSPGNGTDASH
modifications: 125I-labelled
As to B1, the “binding of 125I-labelled rSHBG (in words)” value was “saturable binding” in assay [5] (bovine epididymis membranes permeabilized in digitonin, competition with unlabelled rSHBG) and “saturable binding” in assay [6]. Moreover, the dissociation constant Kd in assay [5] (permeabilized bovine epididymis membranes, in the presence of testosterone, read-out: affinity of binding (Kd)) came out at 0.5 µM.

B2: SHBG: native sex hormone-binding globulin, plasma carrier of androgens and estrogens (protein, listed as Homo sapiens)
chain: MESRGPLATSRLLLLLLLLLLRHTRQGWALRPVLPTQSAHDPPAVHLSNGPGQEPIAVMTFDLTKITKTSSSFEVRTWDPEGVIFYGDTNPKDDWFMLGLRDGRPEIQLHNHWAQLTVGAGPRLDDGRWHQVEVKMEGDSVLLEVDGEEVLRLRQVSGPLTSKRHPIMRIALGGLLFPASNLRLPLVPALDGCLRRDSWLDKQAEISASAPTSLRSCDVESNPGIFLPPGTQAEFNLRDIPQPHAEPWAFSLDLGLKQAAGSGHLLALGTPENPSWLSLHLQDQKVVLSSGSGPGLDLPLVLGLPLQLKLSMSRVVLSQGSKMKALALPPLGLAPLLNLWAKPQGRLFLGALPGEDSSTSFCLNGLWAQGQRLDVDQALNRSHEIWTHSCPQSPGNGTDASH
Consider B2, for which the Kd is 0.05 µM on SHBG receptor (membrane suspensions) and 0.5 µM at SHBG receptor (solubilized membranes).

Values taken from patent US20040198705A1, “Modulation of steroid hormone uptake” (priority 2001, published 2004).
